The values below come from the supplement of paper PMC7877785.

A short description of this data set: self-splicing fitness, log relative to wild type (ln ratio); higher = more splicing; Tetrahymena group I intron in knt gene, E. coli kanamycin selection, DiMSum; sequences stand for … in CUCUCU…GGAGGGAAAAGUUAUCAGGCAUGCACCUGGUAGCUAGUCUUUAAACCAAUAGAUUGCAUCGGUUUAAAAGGCAAGACCGUCAAAUUGCGGGAAAGGGGUCAACAGCCGUUCAGUACCAAGUCUCAGGGGAAACUUUGAGAUGGCCUUGCAAAGGGUAUGGUAAUAAGCUGACGGACAUGGUCCUAACCACGCAGCCAAGUCCUAAGUCAACAGAUCUUCUGUUGAUAUGGAUGCAGUUCACAGACUAAAUGUCGGUCGGGGAAGAUGUAUUCUUCUCAUAAGAUAUAGUCGGACCUCUCCUUAAUGGGAGCUAGCGGAUGAAGUGAUGCAACACUGGAGCCGCUGGGAACUAAUUUGUAUGCGAAAGUAUAUUGAUUAGUUUUGGAGUACUCGUGGUCG
Summed up:
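The eight P1ex-region nucleotides of an intron in the knt kanamycin-resistance gene on pET-22b(+) were all randomised and the library put into E. coli BL21(DE3). Six replicate transformations were grown overnight at 37°C or 30°C on LB agar with or without 25 μg/mL kanamycin, together with 100 μg/mL carbenicillin, 50 μM IPTG and 0.2% rhamnose. Colonies were pooled and amplicon-sequenced on an Illumina HiSeq 2500. Fitness from DiMSum is the error-weighted combination of wild-type-normalised replicate fold changes, kanamycin over none.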

± gives the uncertainty stated by the source.

With CCGCAGCAAUAUUACGCGAC, the “self-splicing fitness (ln)” value is, setting by setting: (30 °C) -2.84 ± 0.17; (37 °C) -2.09 ± 0.26.

Regarding UGGCAGCAAUAUUACGCAAU, the “self-splicing fitness (ln)” value by setting is: (30 °C) -2.31 ± 0.099; (37 °C) -1 ± 0.12.

As for CAGGAGCAAUAUUACGAGCU, the “self-splicing fitness (ln)” value is, setting by setting: (30 °C) -3.44 ± 0.47; (37 °C) -2.52 ± 0.41.

On to GGUAAGCAAUAUUACGUGAA, for which the “self-splicing fitness (ln)” value was -1.52 ± 0.098 (30 °C) and -1.18 ± 0.14 (37 °C).

In the case of ACCCAGCAAUAUUACGAAUC, the “self-splicing fitness (ln)” value is -2.13 ± 0.12 (30 °C) and -1.45 ± 0.16 (37 °C).

Turning to GUCGAGCAAUAUUACGUUGC, the “self-splicing fitness (ln)” value (30 °C) was -2.19 ± 0.2 and the “self-splicing fitness (ln)” value (37 °C) is -2.25 ± 0.41.

With UAUGAGCAAUAUUACGAGAA, the “self-splicing fitness (ln)” value is, setting by setting: (30 °C) -2.28 ± 0.37; (37 °C) -0.332 ± 0.24.

On to GCCCAGCAAUAUUACGACAG, for which the “self-splicing fitness (ln)” value (30 °C) was -3.6 ± 0.19 and the “self-splicing fitness (ln)” value (37 °C) was -1.78 ± 0.14.

In the case of GCGCAGCAAUAUUACGCUGC, the “self-splicing fitness (ln)” value (37 °C) was -3.59 ± 0.43.

Regarding GUACAGCAAUAUUACGACUC, the “self-splicing fitness (ln)” value was -0.243 ± 0.06 (30 °C) and 0.473 ± 0.068 (37 °C).

In the case of GUACAGCAAUAUUACGCUGA, the “self-splicing fitness (ln)” value runs as follows: (30 °C) -2.47 ± 0.12; (37 °C) -1.33 ± 0.1.

Take UAACAGCAAUAUUACGAACC: the “self-splicing fitness (ln)” value is -2.12 ± 0.17 (30 °C) and -1.73 ± 0.24 (37 °C).

In the case of AUCAAGCAAUAUUACGCGAC, the “self-splicing fitness (ln)” value (30 °C) was -2.01 ± 0.23 and the “self-splicing fitness (ln)” value (37 °C) is -1.58 ± 0.22.

UGGUAGCAAUAUUACGAGCU: the “self-splicing fitness (ln)” value (30 °C) is -2.09 ± 0.093 and the “self-splicing fitness (ln)” value (37 °C) was -1.02 ± 0.12.

Take AUACAGCAAUAUUACGUACA: the “self-splicing fitness (ln)” value was -0.262 ± 0.081 (30 °C) and -0.215 ± 0.11 (37 °C).

Consider AAAAAGCAAUAUUACGAGGC, for which the “self-splicing fitness (ln)” value is -4.09 ± 0.33 (30 °C) and -2.57 ± 0.32 (37 °C).

Take ACAGAGCAAUAUUACGGAAA: the “self-splicing fitness (ln)” value runs as follows: (30 °C) -3.38 ± 0.36; (37 °C) -2.81 ± 0.38.

With UUACAGCAAUAUUACGGCCG, the “self-splicing fitness (ln)” value is, setting by setting: (30 °C) -0.529 ± 0.16; (37 °C) -0.389 ± 0.16.

Take GCUCAGCAAUAUUACGAAAA: the “self-splicing fitness (ln)” value is -0.758 ± 0.13 (30 °C) and -1.02 ± 0.18 (37 °C).

Consider AUUGAGCAAUAUUACGCUAC, for which the “self-splicing fitness (ln)” value (30 °C) was -3.69 ± 0.37.

Turning to UCACAGCAAUAUUACGUAGG, the “self-splicing fitness (ln)” value reads like this: (30 °C) -1.07 ± 0.055; (37 °C) -1.05 ± 0.082.

As to UGAUAGCAAUAUUACGUCCU, the “self-splicing fitness (ln)” value runs as follows: (30 °C) -0.302 ± 0.07; (37 °C) 0.376 ± 0.1.

Turning to GUUUAGCAAUAUUACGACGC, the “self-splicing fitness (ln)” value is 0.0175 ± 0.18 (30 °C) and -0.0772 ± 0.24 (37 °C).

On to UCAAAGCAAUAUUACGUCCG, for which the “self-splicing fitness (ln)” value is -0.781 ± 0.12 (30 °C) and -0.625 ± 0.16 (37 °C).

CGAAAGCAAUAUUACGGCUA: the “self-splicing fitness (ln)” value was -1.72 ± 0.13 (30 °C) and -1.6 ± 0.14 (37 °C).

As for ACACAGCAAUAUUACGGAUA, the “self-splicing fitness (ln)” value by setting is: (30 °C) -2.87 ± 0.15; (37 °C) -2.54 ± 0.15.

For the sequence CCAGAGCAAUAUUACGUCAA, the “self-splicing fitness (ln)” value runs as follows: (30 °C) -4.08 ± 0.39; (37 °C) -2.3 ± 0.35.

As for GAAAAGCAAUAUUACGUCCC, the “self-splicing fitness (ln)” value (30 °C) is -0.229 ± 0.17 and the “self-splicing fitness (ln)” value (37 °C) was determined as 0.0916 ± 0.2.

In the case of CACCAGCAAUAUUACGCUGC, the “self-splicing fitness (ln)” value (30 °C) was -4.19 ± 0.22 and the “self-splicing fitness (ln)” value (37 °C) was -2 ± 0.16.

As to ACCUAGCAAUAUUACGUCUA, the “self-splicing fitness (ln)” value by setting is: (30 °C) -2.44 ± 0.21; (37 °C) -2.04 ± 0.25.

Regarding UGGCAGCAAUAUUACGAUAA, the “self-splicing fitness (ln)” value runs as follows: (30 °C) -0.124 ± 0.1; (37 °C) 0.0812 ± 0.1.

Take GUGUAGCAAUAUUACGUUUA: the “self-splicing fitness (ln)” value is, setting by setting: (30 °C) -2.51 ± 0.23; (37 °C) -2.01 ± 0.15.

As to UAAGAGCAAUAUUACGAAUC, the “self-splicing fitness (ln)” value is -2.87 ± 0.29 (30 °C) and -1.79 ± 0.35 (37 °C).

UGAAAGCAAUAUUACGGCGC: the “self-splicing fitness (ln)” value is -1.78 ± 0.21 (30 °C) and -0.486 ± 0.23 (37 °C).

GCCAAGCAAUAUUACGUAGG: the “self-splicing fitness (ln)” value is, setting by setting: (30 °C) -3.32 ± 0.18; (37 °C) -1.78 ± 0.17.

For AGCGAGCAAUAUUACGGGUU, the “self-splicing fitness (ln)” value reads like this: (30 °C) -2.83 ± 0.2; (37 °C) -1.09 ± 0.15.

Regarding AUCAAGCAAUAUUACGACAG, the “self-splicing fitness (ln)” value was -3.07 ± 0.17 (30 °C) and -1.7 ± 0.18 (37 °C).

Take GUAAAGCAAUAUUACGGUCA: the “self-splicing fitness (ln)” value is -0.163 ± 0.072 (30 °C) and 0.362 ± 0.097 (37 °C).
